Measurements taken from US12077763B2, “RNA-based control of powdery mildew” (Greenlight Biosciences, Inc., priority 2021, dated 2024).

Test system: E. necator
Assay: Leaf disc assay, dry inoculum (settling tower), decrease in disease severity / hyphal growth (Example 2)
Details: decrease in disease severity (hyphal growth) relative to untreated control, value ± SE; for % decrease =/− SE TP1: time point 1 (untreated control hyphal growth ≥50%); for % decrease =/− SE TP2: time point 2

B1: GS3939 (nucleic acid)
sense: AAGAUUGAAAAUGGAACGCCUAGAACAGCACCUUUAAUUACAACACGAAGGACUCCGAAAAUGCUACGAUCUACUGUGUCAAAUUCCUCGCUUUCCUCACAACCAUCAAUGUCACCGCAUCAAUUUAUUGCUCUUGCCCGGGAAGCAAUGAAAAAUGCUUUGGAAGAGAACAAAUCAAAGGCAGCUGAGGCCAAAAGUGUUAGUAAUGAACUUAAGCCAGGGGUUACGAUCGAUUUUAGCAACAAACAAAUCCAACGAUUUCCUGAUGAAGUAAUUGAUAUAAUAAAGAAUGAGCUUGAAAGACUUGCGCUGUCACAUAAUCAAAUAUCUGUGUUUCCCUCAAGGUUUUCCGAAUGCAAAUCACUCCGAUACCUCAAUGUUAGAGAUAAUGUUAU
antisense: AUAACAUUAUCUCUAACAUUGAGGUAUCGGAGUGAUUUGCAUUCGGAAAACCUUGAGGGAAACACAGAUAUUUGAUUAUGUGACAGCGCAAGUCUUUCAAGCUCAUUCUUUAUUAUAUCAAUUACUUCAUCAGGAAAUCGUUGGAUUUGUUUGUUGCUAAAAUCGAUCGUAACCCCUGGCUUAAGUUCAUUACUAACACUUUUGGCCUCAGCUGCCUUUGAUUUGUUCUCUUCCAAAGCAUUUUUCAUUGCUUCCCGGGCAAGAGCAAUAAAUUGAUGCGGUGACAUUGAUGGUUGUGAGGAAAGCGAGGAAUUUGACACAGUAGAUCGUAGCAUUUUCGGAGUCCUUCGUGUUGUAAUUAAAGGUGCUGUUCUAGGCGUUCCAUUUUCAAUCUU
% decrease =/− SE TP1: 4 ± 5%

B2: GS1819: dsRNA trigger SEQ ID NO 209; gene target Putative ATP-dependent RNA helicase PB1A10.06c (nucleic acid)
DNA: CTGGTGCCCTTAACTTGATGGTAAGATTATTCGGCAGAGTTTTTACCATTTGAATATTTGGTATTGATTTATATCCTTGAGCCTCATTTATTTGCTGGATAGCCCAAGCCTTAAACGCAGATCTTTCTTTTCTAGGCGTATTCTCAATTTCATCGCAATCATCAGAACTTTCATTCTCATCACGGCTACTTTCTTTACTGCTATCTGACTCGTAATCAGATAAATTTGGTCCAATTTTATCTCCAACGTCTTCTGAGGAATTTGTCATGTTTCCTATGGTATCACGCTGGATTGACATACTTGAATCTGAGTTTATACCTTCCCATTCTGATTCATCATCGGTGACAGGCTTGCGAATATCAAGAGAAAATTTAGATACAATGCCGCCTCGTCGTTTTCTTTTCCCCAGAATAGGAATTCCCTCCTTACTTATTTCGAGTGGCTTTTTTTAATCCAGCTCCCACAGTTATATCTGTTTGCTTCTGAGTAGTAAGTACTGAAGCTTTAGAGGTCTCATCGATATTATCGTCACATGGAGATATTCTCAGATCATCATTGGTTACAGTACTCTCATCGGAATTGAATTGATTTTCGTT
% decrease =/− SE TP1: 12 ± 6% | % decrease =/− SE TP2: 8 ± 9%

B3: GS1821: dsRNA trigger SEQ ID NO 131; gene target ABC transporter ATP-binding protein ARB1 (nucleic acid)
DNA: AACACCATTAGGCCCTACCAAAGCTGTTCGAGAGTCCATATCAACACCTAGATCCAAATGTCTGTATAAATCATCTTTAGGATCACCAGAGTATGAAAAAGTAACATCGTCAAATGATAACACTGGTGGAGGAAGTTTTTCCACGTCTGCAAATCTGAAAGTAAAGATACGGTCAGGCTCAACTTTTTGAATGAAGCCATCTGCTTCCATCTTGTCTAGTATTTTTTGTCGTGATTTAGCCTGTCTGACTAAGTTGGCATAAGTACCAGCAGATGCAATAAATTTTTTGATATGAGCGATTTCGTCTTGTTGCTTGTGATAAGCTTTCATTTGGTTGACTTCTAACTCAGAGCGGGTCTTTTGGTATGTATCATAATTTCCACCATAATATGTAAGTTGTTTTTGCCGCATATCAATCATATTGGTGCAGACTCCATTTAGAAAGTCCATTGAATGAGACACTAATACAAGACTTCGATCCCACTTCTTAAGATATTCTTCAAGCCACACACAAGCTTCCAAGTCTAAGTGCGCAGTCGGATCATCAAGTAGAAGTAAAGATGGCTTAACAAAAAGGGCTTTTGCTAAAGCTACA
% decrease =/− SE TP1: 29 ± 5% | % decrease =/− SE TP2: 19 ± 6%

B4: GS1820: dsRNA trigger SEQ ID NO 164; gene target Mitochondrial carrier protein LEU5 (nucleic acid)
DNA: TTTTTTACAGCCTCTTTGGGAAATCTTATGGATTGAGGCGAAGGCGGAACTTCATTATATATGATTTTGCAAATGTGTGAAAAGCTTGAGCTCGCACCTTTCTTTGTTTCAAAAGCTAGCCGAACCCTTATGACTTCTAAGGGATATGTGAAGAAAACACTAGCGACGCCTGCTAAACTGCCACTTAACAATCTTCGTAATGATGTTTCTTGCGTAGGTGATGATATAAGAAATGATCGTATTTGCTCGTAGGTTAAAAACTTGATCGCAGCATAAGGAAATATCCGAATTATAGTGGCAGAATGGCCACGAAATAGACCACTAATTCCATCAGTAGCTTTGATTTGCCGTATAGCAGTCACAACGCCGAGCCAGCTCCCAGCGTATCTGGAAAATTGTGGATTAGAAGATTGGAATAATATCTTCACACGATCTAAAGGTGCCACTATAGTTTTTGCCGCACTCCCTGCTAGTCCTCCAGCTAATCCTGACCGCCATATGAATCCCAAAGATTGCTTTTCATGAGTTTGGGATTTTGATGAATCTTTTTTATTTTTCGTAGAAGGGTATACTGCAATATTACTTTCATATAAAT
% decrease =/− SE TP1: 23 ± 4% | % decrease =/− SE TP2: 10 ± 6%

B5: GS1822: dsRNA trigger SEQ ID NO 206; gene target Putative phospholipid-transporting ATPase C6C3.06c (nucleic acid)
DNA: TCTCTTCGCGACCGATATCCATTTCCTGAGGGTAACAGAGAATGATCTTCAGCACTGTCTGGGTTGTATCTGCCAGTTCCCTCAACATCTGGGTCGTCCCTCAATAAGCTATGTAAGTCCTCTTCAGCGTAGTCTAAATTCCTTGGGGCCCCATTTCTTCTTCCTAACCCTCTGAATCCGCTCATGCGTAGATTTCTCAACGGAATATTGCTTTCAGTTCTCCAGTCATGCGCTTTCGGTTTGATCCCTTGTTCAAGCTCCTGGATATCTAAATCCAGATCGGAGTCCGAATCAGCTTGAGGTGGAATTTGATCGCCCTGATGATAATATGAGCCCGAAGACATGCCTCATTGTATTTTATCGTTTGATCTCTATAATCTCCTAGGTGATGTTATAAAGCTTGACCGCATAAAATCGGTTAATCATTTAAGCAAATGCAGTTGCGGTGTGTCATATCTTTCACGGCAGCATCTAGTATGTCTAGTATGGCTGCTACTGTATTTTAAATAAACCAAAACATGTTCAACACATTTCATAAGGTATAAGAAGGATTGTGAATATAATTTACTGGTAAATTTTAAATCATAGTTGAAAA
% decrease =/− SE TP1: 23 ± 5% | % decrease =/− SE TP2: 16 ± 4%
